Test results: US20200024330A1

Assays:
Experiment in all cases: cell-based or functional assay
[1] = target: HIV-1 Env of isolate MGRM-AE-004 (HIV-1)
[2] = target: HIV-1 Env of isolate MGRM-AG-003 (HIV-1)
[3] = target: HIV-1 Env of isolate MGRM-AG-011 (HIV-1)
[4] = target: HIV-1 Env of isolate MGRM-D-004 (clade D) (HIV-1)
[5] = target: HIV-1 Env of isolate MGRM-G-001 (HIV-1)
[6] = target: HIV-1 Env of isolate MGRM-Chronic-B-023 (HIV-1)
[7] = target: HIV-1 97ZA012 envelope glycoprotein (Env) on pseudovirus (HIV-1)
[8] = target: HIV-1 Env of isolate MGRM-D-002 (HIV-1)
[9] = target: HIV-1 Env of isolate MGRM-G-006 (HIV-1)
[10] = target: HIV-1 92TH021 envelope glycoprotein (Env) on pseudovirus (HIV-1)
[11] = target: HIV-1 Env of isolate MGRM-AG-001 (HIV-1)
[12] = target: HIV-1 Env of isolate MGRM-AE-007 (HIV-1)
[13] = target: HIV-1 Env of isolate MGRM-Chronic-B-024 (HIV-1)
[14] = target: HIV-1 92RW020 envelope glycoprotein (Env) on pseudovirus (HIV-1)
[15] = target: HIV-1 Env of isolate MGRM-G-009 (HIV-1)
[16] = target: HIV-1 Env of isolate MGRM-AG-012 (HIV-1)
[17] = target: HIV-1 92UG024 envelope glycoprotein (Env) on pseudovirus (HIV-1)
[18] = target: HIV-1 Env of isolate MGRM-AG-002 (HIV-1)
[19] = target: HIV-1 Env of isolate MGRM-AE-006 (HIV-1)
[20] = target: HIV-1 Env of isolate MGRM-Chronic-B-018 (HIV-1)
[21] = target: HIV-1 Env of isolate MGRM-Chronic-B-012 (HIV-1)
[22] = target: HIV-1 NL43 envelope glycoprotein (Env) on pseudovirus (HIV-1)
[23] = target: HIV-1 Env of isolate MGRM-AG-013 (HIV-1)
[24] = target: HIV-1 Env of isolate MGRM-Chronic-B-010 (HIV-1)
[25] = target: HIV-1 Env of isolate MGRM-AE-005 (HIV-1)
[26] = target: HIV-1 Env of isolate MGRM-Chronic-B-017 (HIV-1)
[27] = target: HIV-1 Env of isolate MGRM-AG-005 (HIV-1)
[28] = target: HIV-1 Env of isolate MGRM-AE-008 (HIV-1)
[29] = target: HIV-1 Env of isolate JRFL (HIV-1)
[30] = target: HIV-1 Env of isolate THR0.18 (HIV-1)
[31] = target: HIV-1 Env of isolate MGRM-G-017 (HIV-1)
[32] = target: HIV-1 Env of isolate MGRM-Chronic-B-011 (HIV-1)
[33] = target: HIV-1 Env of isolate MGRM-G-015 (HIV-1)
[34] = target: HIV-1 Env of isolate MGRM-G-014 (HIV-1)
[35] = target: HIV-1 Env of isolate MGRM-G-011 (HIV-1)
[36] = target: HIV-1 Env of isolate MGRM-G-016 (HIV-1)
[37] = target: HIV-1 Env of isolate MGRM-G-027 (HIV-1)
[38] = target: HIV-1 Env of isolate MGRM-G-004 (HIV-1)
[39] = target: HIV-1 92BR020 envelope glycoprotein (Env) on pseudovirus (HIV-1)
[40] = target: aMLV envelope (negative control pseudovirus)
[41] = target: HIV-1 Env of isolate MGRM-Chronic-B-020 (HIV-1)
[42] = target: HIV-1 Env of isolate MGRM-G-019 (HIV-1)
[43] = target: HIV-1 Env of isolate MGRM-G-013 (HIV-1)

Sequence of 5329_C19 (PGT-136) (antibody) (VH): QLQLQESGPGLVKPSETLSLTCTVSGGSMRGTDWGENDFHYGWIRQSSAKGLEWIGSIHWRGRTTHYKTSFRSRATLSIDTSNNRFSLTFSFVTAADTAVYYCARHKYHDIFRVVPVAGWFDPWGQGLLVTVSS
Sequence of 5329_C19 (PGT-136) (antibody) (VL): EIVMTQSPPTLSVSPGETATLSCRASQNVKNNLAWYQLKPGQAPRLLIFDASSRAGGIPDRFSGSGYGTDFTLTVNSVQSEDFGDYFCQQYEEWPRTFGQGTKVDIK

1496_C09 (PG9) (TCN-109) (antibody)
IC50 (µg/mL), pseudovirus neutralization [1]: 0.009 µg/mL | IC50 (µg/ml), pseudovirus neutralization [1]: 0.01 µg/mL | IC50 (µg/ml), pseudovirus neutralization [2]: 9.71 µg/mL | IC50 (µg/mL), pseudovirus neutralization [3]: 0.007 µg/mL | IC50 (µg/ml), pseudovirus neutralization [3]: 0.01 µg/mL | IC50 (µg/ml), pseudovirus neutralization [4]: 0.03 µg/mL | IC50 (µg/ml), pseudovirus neutralization [5]: 0.16 µg/mL | IC50 (µg/ml), pseudovirus neutralization [6]: 0.04 µg/mL | IC50 (µg/ml), pseudovirus neutralization [7]: 1.27 µg/mL | IC50 (µg/mL), pseudovirus neutralization [8]: 0.021 µg/mL | IC50 (µg/ml), pseudovirus neutralization [9]: 0.51 µg/mL | IC50 (ug/ml), neutralizing activity [10]: 0.103 µg/mL | IC50 neutralization [10]: 0.103 µg/mL | IC80, neutralization [10]: 0.448 µg/mL | IC90 (pseudovirus neutralization) [10]: 1.99 µg/mL | IC90, neutralization [10]: 1.07 µg/mL | IC95, neutralization [10]: 2.43 µg/mL | IC50 (µg/mL), pseudovirus neutralization [11]: 17.1 µg/mL | IC50 (µg/ml), pseudovirus neutralization [11]: 8.83 µg/mL | IC50 (µg/mL), pseudovirus neutralization [12]: 0.18 µg/mL | IC50 (µg/ml), pseudovirus neutralization [13]: 0.18 µg/mL | IC50 (ug/ml), neutralizing activity [14]: 0.161 µg/mL | IC50 neutralization [14]: 0.161 µg/mL | IC80, neutralization [14]: 1.04 µg/mL | IC90 (pseudovirus neutralization) [14]: 6.55 µg/mL | IC90, neutralization [14]: 3.4 µg/mL | IC50 (µg/ml), pseudovirus neutralization [15]: 4.9 µg/mL | IC50 (µg/mL), pseudovirus neutralization [16]: 22.8 µg/mL | IC50 (µg/ml), pseudovirus neutralization [16]: 1.37 µg/mL | IC50 (ug/ml), neutralizing activity [17]: 1.91 µg/mL | IC50 neutralization [17]: 1.91 µg/mL | IC50 (µg/mL), pseudovirus neutralization [18]: 0.076 µg/mL | IC50 (µg/ml), pseudovirus neutralization [18]: 0.04 µg/mL | IC50 (µg/mL), pseudovirus neutralization [19]: 0.063 µg/mL | IC50 (µg/ml), pseudovirus neutralization [19]: 0.05 µg/mL | IC50 (µg/ml), pseudovirus neutralization [20]: 0.16 µg/mL | IC50 (µg/ml), pseudovirus neutralization [21]: 0.91 µg/mL | IC50 (ug/ml), neutralizing activity [22]: 0.687 µg/mL | IC50 neutralization [22]: 0.687 µg/mL | IC50 (µg/mL), pseudovirus neutralization [23]: 0.259 µg/mL | IC50 (µg/ml), pseudovirus neutralization [23]: 0.23 µg/mL | IC50 (µg/ml), pseudovirus neutralization [24]: 0.004 µg/mL | IC50 (µg/mL), pseudovirus neutralization [25]: 0.282 µg/mL | IC50 (µg/ml), pseudovirus neutralization [25]: 0.16 µg/mL | IC50 (µg/ml), pseudovirus neutralization [26]: 0.32 µg/mL | IC50 (µg/ml), pseudovirus neutralization [27]: 29.7 µg/mL | IC50 (µg/mL), pseudovirus neutralization [28]: 31.5 µg/mL | IC50 (µg/ml), pseudovirus neutralization [28]: 10.6 µg/mL

5147_N06 (PGT-130) (antibody)
IC50 [29]: 0.046 µg/mL | IC50 [30]: > 50 µg/mL | IC50, pseudovirus neutralization [31]: > 50 µg/mL | IC50, pseudovirus neutralization [5]: 0.0198 µg/mL | IC50 [6]: > 50 µg/mL | IC50 [8]: 0.869 µg/mL | IC50, pseudovirus neutralization [9]: > 50 µg/mL | IC50 (ug/ml), neutralizing activity [10]: 0.0082 µg/mL | IC50 [32]: 0.153 µg/mL | IC50, pseudovirus neutralization [33]: > 50 µg/mL | IC50, pseudovirus neutralization [34]: 2.23 µg/mL | IC50 [13]: 5.78 µg/mL | IC50 (ug/ml), neutralizing activity [14]: 0.014 µg/mL | IC50, pseudovirus neutralization [35]: > 50 µg/mL | IC50, pseudovirus neutralization [15]: > 50 µg/mL | IC50, pseudovirus neutralization [36]: > 50 µg/mL | IC50 (ug/ml), neutralizing activity [17]: > 10 µg/mL | IC50, pseudovirus neutralization [37]: 4.14 µg/mL | IC50, pseudovirus neutralization [38]: > 50 µg/mL | IC50 [20]: 31.9 µg/mL | IC50 (ug/ml), neutralizing activity [39]: 1.12 µg/mL | IC50, pseudovirus neutralization [40]: > 50 µg/mL | IC50 [21]: 0.373 µg/mL | IC50 [41]: 0.014 µg/mL | IC50 (ug/ml), neutralizing activity [22]: > 10 µg/mL | IC50 [24]: 0.006 µg/mL | IC50 [26]: > 50 µg/mL | IC50, pseudovirus neutralization [42]: 27.9 µg/mL | IC50, pseudovirus neutralization [43]: > 50 µg/mL

5329_C19 (PGT-136) (antibody)
IC50 [29]: > 50 µg/mL | IC50 [30]: > 50 µg/mL | IC50, pseudovirus neutralization [31]: > 50 µg/mL | IC50, pseudovirus neutralization [5]: 8.11 µg/mL | IC50 [6]: > 50 µg/mL | IC50 [8]: > 50 µg/mL | IC50, pseudovirus neutralization [9]: > 50 µg/mL | IC50 [32]: > 50 µg/mL | IC50, pseudovirus neutralization [33]: > 50 µg/mL | IC50, pseudovirus neutralization [34]: > 50 µg/mL | IC50 [13]: > 50 µg/mL | IC50 (ug/ml), neutralizing activity [14]: 0.738 µg/mL | IC50, pseudovirus neutralization [35]: > 50 µg/mL | IC50, pseudovirus neutralization [15]: > 50 µg/mL | IC50, pseudovirus neutralization [36]: > 50 µg/mL | IC50, pseudovirus neutralization [37]: 45.2 µg/mL | IC50, pseudovirus neutralization [38]: > 50 µg/mL | IC50 [20]: > 50 µg/mL | IC50 (ug/ml), neutralizing activity [39]: > 10 µg/mL | IC50, pseudovirus neutralization [40]: > 50 µg/mL | IC50 [21]: 43.1 µg/mL | IC50 [41]: > 50 µg/mL | IC50 [24]: > 50 µg/mL | IC50 [26]: > 50 µg/mL | IC50, pseudovirus neutralization [42]: 44.3 µg/mL | IC50, pseudovirus neutralization [43]: > 50 µg/mL

5343_B08 (PGT-135) (antibody)
IC50 [29]: > 50 µg/mL | IC50 [30]: > 50 µg/mL | IC50, pseudovirus neutralization [31]: 0.137 µg/mL | IC50, pseudovirus neutralization [5]: 0.393 µg/mL | IC50 [6]: 0.329 µg/mL | IC50 [8]: > 50 µg/mL | IC50, pseudovirus neutralization [9]: > 50 µg/mL | IC50 [32]: > 50 µg/mL | IC50, pseudovirus neutralization [33]: > 50 µg/mL | IC50, pseudovirus neutralization [34]: > 50 µg/mL | IC50 [13]: > 50 µg/mL | IC50 (ug/ml), neutralizing activity [14]: 0.157 µg/mL | IC50, pseudovirus neutralization [35]: > 50 µg/mL | IC50, pseudovirus neutralization [15]: > 50 µg/mL | IC50, pseudovirus neutralization [36]: > 50 µg/mL | IC50, pseudovirus neutralization [37]: 0.062 µg/mL | IC50, pseudovirus neutralization [38]: > 50 µg/mL | IC50 [20]: > 50 µg/mL | IC50 (ug/ml), neutralizing activity [39]: 0.104 µg/mL | IC50, pseudovirus neutralization [40]: > 50 µg/mL | IC50 [21]: 0.166 µg/mL | IC50 [41]: 0.057 µg/mL | IC50 [24]: > 50 µg/mL | IC50 [26]: > 50 µg/mL | IC50, pseudovirus neutralization [42]: 0.145 µg/mL | IC50, pseudovirus neutralization [43]: > 50 µg/mL
